B1: Leptospira interrogans glyceraldehyde-3-phosphate dehydrogenase (GAPDH) (enzyme)
chain: MTRIAINGFGRIGRLVFRAGIKDPNLEFVAINDLVTPDNLAYLLKYDSTHGRFQGTVEHTEKELIVDGKKILCVSERDPEKLPWKDLKVDYVIESTGLFTDRVGAEKHIKAGAKKVVISAPAKDKDIPTFVMGVNNEKYNPSNDHIVSNASCTTNCLAPIVKVVLDNWGIEEGLMTTIHATTATQPTVDGPSKKDFRGGRGAMQNIIPASTGAAKAVGLCIPEVNGKLTGMSFRVPTPDVSVVDLTVRTTKETSLKEISAKMKAASEGAMKGILGYTEDMVVSNDFVSSTLSSIFDMDACIELNSRFFKLVSWYDNEMGYSNRVLDLIRYMAKKG
notes: also called LiGAPDH; L. interrogans GAPDH; source: E. coli Rosetta(DE3), purified (HisTrap, Superdex 200 SEC); not shown: His6, N-terminal, kept

What was measured:
[1] = target: the molecule itself; experiment: SEC; HiLoad 16/60 Superdex 200 pg in 10 mM HEPES-NaOH (pH 7.4), 150 mM NaCl, 3.4 mM EDTA; elution volume compared with a calibration curve
[2] = target: B1; experiment: BLI; conditions: both partners purified

Binder | stoichiometry N [1] | kon [2]
B1 | 4 | –
biotinylated-C5a (ligand, biotinylated (site not stated), also called immobilized C5a; source: bought: Abvance Biotech (ABVC5ARBIO1)) TLQKKIEEIAAKYKHSVVKKCCYDGACVNNDETCEQRAARISLGPRCIKAFTECCVVASQLRANISHKDMQLGR | – | 37.3 ± 0.2 M⁻¹ s⁻¹

From PMC10318897, “The structure of Leptospira interrogans GAPDH sheds light into an immunoevasion factor that can target the anaphylatoxin C5a of innate immunity” (Frontiers in Immunology, 2023)
